Source: doi:10.1101/2022.05.31.494220

Molecular target: peptide encoding HTP-3 closure motif #4 (C. elegans)
Assay: fluorescence polarisation

B1: HIM-3 (wildtype) (natural protein)
chain: ATKEQIVEHRESEIPIASQWKATFPVDLEIEKNSEMFALRYIKCASAFILDRRGILDEKCFKTRTIDKLLVTAFQSSVPAAKRVSSTFDGLRDAIQQGYLREFAIVFYKKPNEEDINEVFAFRFAYGDEGEIFVSLNNGIDTNESSQELLQAKFVDTDNTKQMFASTIKKLHRCIKKMEPLPQGSDASFRVSYTEKAPKDYTPEGYLLSPMFYTLNQDIRKASIGIVCGGHHKIQMLAASQYLKQDFDLDKTTTLNPNMSIMANQSKRKGRISRDSPYGLSQGITKKNKD
In the case of B1, the Kd is reported as 220 nM.

B2: HIM-3^R93Y (natural protein)
chain: ATKEQIVEHRESEIPIASQWKATFPVDLEIEKNSEMFALRYIKCASAFILDRRGILDEKCFKTRTIDKLLVTAFQSSVPAAKRVSSTFDGLYDAIQQGYLREFAIVFYKKPNEEDINEVFAFRFAYGDEGEIFVSLNNGIDTNESSQELLQAKFVDTDNTKQMFASTIKKLHRCIKKMEPLPQGSDASFRVSYTEKAPKDYTPEGYLLSPMFYTLNQDIRKASIGIVCGGHHKIQMLAASQYLKQDFDLDKTTTLNPNMSIMANQSKRKGRISRDSPYGLSQGITKKNKD
B2 was tested, and the Kd was 690 nM.
